According to paper PMC12191217, “Aptamer Development for SARS-CoV-2 and Omicron Variants Using the Spike Protein Receptor Binding Domain as a Potential Diagnostic Tool and Therapeutic Agent”:

Target: SARS-CoV-2 spike RBD (Wuhan-Hu-1), His-tagged (SARS-CoV-2 (Wuhan-Hu-1 strain), UniProt P0DTC2 319-541)
Test: BLI; 3 mM MgCl2; 10 mM phosphate pH 7.4, 137 mM NaCl, 2.7 mM KCl, 3 mM MgCl2, 0.01% BSA, 0.002% Tween 20, 25 °C; aptamer 175-1400 nM, n=2
Settings: protein: commercial; tags: His

B1: Aptamer 23 (structured_RNA)
RNA: CACUACCAAGAGUGUGUUAGAGGUACAACAGUACUUUUAA
Kd: 29300 ± 10400 nM

B2: Aptamer 11 (structured_RNA)
RNA: GAUUUUAGUCAUAGUCAGUUAGGUGGUUUACAUCUACUGA
Kd: 425 ± 146 nM

B3: Aptamer 40 (structured_RNA)
RNA: GUUUCGGAAGAGACAGGUACGUUAAUAGUUAAUAGCGUAC
Kd: 571 ± 173 nM

B4: Aptamer 62 (structured_RNA)
RNA: GAUGGUAAUGCUGCUAUCAGCGAUUAUGACUACUAUCGUU
Kd: 285 ± 141 nM

B5: Aptamer 22 (structured_RNA)
RNA: GCUGGUGCUGCAGCUUAUUAUGUGGGUUAUCUUCAACCUA
Kd: 5450 ± 1700 nM
